The record followed here is the nanobody polyreactivity screen of Harvey et al. (2022).

The nature of this data set: yeast display, Sf9 membrane polyspecificity reagent, FACS + sequencing; frameworks hold sequencing errors. Summed up: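 Galactose induction of a Saccharomyces cerevisiae BJ5465 synthetic nanobody display library ran 36–48 hours. The cells were then stained for 1 hour at 4 °C with 10% biotinylated, detergent-solubilized Sf9 membrane reagent, pulled down on streptavidin microbeads and FACS-sorted into low and high (top ~1%) gates on expression and reagent-binding fluorescence. Labels for polyreactivity follow the gate of origin.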
As to “QVQLVESGGGLVQAGGSLRLSCPASGSTFMKYDKGWYRQAPGIVRELVAAISWDGGSTYYADSVKGRFTISRDNAKNTVYLQMNSLKPEDTAVYYCNADYDVYLTIWYYYCEFDYWGQGSQVTVSS”, the “polyreactivity (PSR sort gate)” value is recorded as “low polyreactivity”.

With “QVQLVESGGGLIQAGGSLRLSCAASGSTFPYYAMGWYRQAPVKEREFVAAIRFSGSSTYDADSVKGRYTISRDYAKTTVYLQMNSLNREDTAVYYCATDYWLPSFSYDYWGQGTQVTVSS”, the “polyreactivity (PSR sort gate)” value is “low polyreactivity”.

In the case of “QVQLVESGGGLVQAGGSLRLSCAASGRTFRVYAKGWYRQAPGKERDFVAAITDSGGRKYYADSVKGRFTISRDNAKHTVYVQMNSLKPEDTAVYYCNAYEYFVRYDTYLFRYDYWGQGTQVTVSS”, the “polyreactivity (PSR sort gate)” value is given as “low polyreactivity”.

For “QVQLVESGGGLVQAGGSLRLSCAASGFTFYTYAMGWYRQAPGKERELVAAISGSGSRTYYADSVKGRFTISRDNAKNTVYLQMNSLKPEDTAVYYCNAGYGSGSLHREFNYWGQGTQVTVSS”, the “polyreactivity (PSR sort gate)” value is given as “low polyreactivity”.

In the case of “QVQLVESGGGLVQAGGSLRLSCSASGFTLGFNAMGCYRQAPGKEREFVASITYRGGSTYYADSVKGRFTISRDNAKNTVYLQMNSLKPEDTAVYYCAARHRSSYSLYWGQGTQVTVSS”, the “polyreactivity (PSR sort gate)” value is “high polyreactivity”.

As to “QVQLVETAGGLVQAGGSLRLSSAASGRTFTLNAMGWYRQAPGKERELVATISRRGGSTYYADSVKGRFTISRDNAKNTVYLQMNSLNPEDTAVYYCNAGSSVLKYDYWGQGTEVTVSS”, the “polyreactivity (PSR sort gate)” value was “low polyreactivity”.

For the sequence “QVQLVESGGGFVQAGGSLRLSCAASGNTFAGNAMGGYRQAPGKERELDAAISRSGVTTRYADSVKGRFTISRDNAKNTVYFQMKSLKPEDTAVSYCNADPRLRETRDYWGQVTQVTVSS”, the “polyreactivity (PSR sort gate)” value is recorded as “high polyreactivity”.

As to “QVQLVESGGGLVQAGGSLRLSCAATGSTFTAYAMSWYRQAPGKESELVAAIRRIGGDTYYADSVKGLFTISRDNAKNTVYLQMNSLKPEDTAVYYCAAFRWRSLQYWYHSMDLWGQGSQVTVSS”, the “polyreactivity (PSR sort gate)” value is recorded as “low polyreactivity”.

Consider “QVQLVVSGGGLVQAGGSLRLSCAASGRTFRSYAMGWYRQEPGKERELVAAISDGGSTNYADSVKGRFTISRDNAKNTVYLQMNSLKPEDTAVYYCAAEFFFAVFRFYYWGQGTQVTVSS”, for which the “polyreactivity (PSR sort gate)” value is given as “low polyreactivity”.

For “QVQLVESGGGLVQAGGSLRLSCAASGFTLGFNAMGWYRQAPGKERELVAAITIGGTTYYADSVKGRFTISRDNAKNTVYLQMNSLKPEDTAVYYCAAARFLWFYVYTTRVQRYGYWGQGTQVTVSS”, the “polyreactivity (PSR sort gate)” value is “low polyreactivity”.

Turning to “QVQLVESGGGLVQAGGSLRLSCAASGIIFAGNAMGWYRQAPGKERELVAAISSGTTTNYADSVKGRFTISRDNAKNTVYLQMNRLKPEDTAVYYCAADDFPYKSDYWGQGTHVTVSS”, the “polyreactivity (PSR sort gate)” value is “low polyreactivity”.

Take “QVQLVESGGGLVQAGGSLRLSCAASGRTFRPYAMGWYIQAPGKERELVAAIDSSGTSTYYADSVKGRFTISRDNAKNTVYLQMNSLKPEDTAVYYCAKAWPDHWYSRYDYWGQGTQVTVSS”: the “polyreactivity (PSR sort gate)” value is listed as “low polyreactivity”.

Consider “QVQLLESGGGLVQAGGSLRLSCAASGSIFRGNAMGWYRQAPGKERELVAAISQRGTSTYYADSVKGRFTISRDYAKNTVYLQMNSLKPEDTAVYYCNALYWQIGDDYWGQGTQVTVSS”, for which the “polyreactivity (PSR sort gate)” value is given as “high polyreactivity”.

Take “QVQLVESVGGLVQAGGSLRLSCAASGSIFDSNAMGWYRQAPGKVRELVASITSSGGSTYYADSVKGRFTISRDNAKKTVYLQMNSLKPEDTAVYYCAAKQAQRRYRQWSTSGYWGQGTQVTVSS”: the “polyreactivity (PSR sort gate)” value was “high polyreactivity”.

Turning to “QVQLVESGGGLVQAGGSLRLSCAASGRTFADYAMGWYRQAPGKERELVAAISWRGGSTYYADSVKGRFTISRDNAKNTVYLQMNSLKPEDTAVYYCNKAYPADYDYWGQGTQVTVSS”, the “polyreactivity (PSR sort gate)” value was “low polyreactivity”.

On to “QVQLVESGGGLVQAGGSLRLSCAASGRTSKYYAMGWYRQAPGKERELVAAITGTGGSTYYADSVKGRFTISRDNAKNTVYLQMNSLKPEDTAVYYCAALRKSYTYDSWGQGTQVTVSS”, for which the “polyreactivity (PSR sort gate)” value is given as “high polyreactivity”.

“QVQLQESGGGLVQAGGTLRLSCAASGSFSADEDMGWYRQAQGKEREFVAGISVGGNTNYADSVKGRFTISRENAKNTVYLQMNILKPEDTAVYYCNARLLYLGSGFYYWGQGTQVTVSS”: the “polyreactivity (PSR sort gate)” value is “high polyreactivity”.

Take “QVQLVESGGGLVQAGGSLRLSCAASGRISPSYAMGWYRHATGKERELVAAISRGGSTSYADSVKGLFTISRDNAKNTVYLQMNSLKPEDTAVYYCSTRGPRYRNYYWGQGTQVTVSS”: the “polyreactivity (PSR sort gate)” value is recorded as “high polyreactivity”.

Turning to “QVQLVESGGGLVQAGGSLRLSCAASGFIFWQYTMAWYRQAPGKERELVAAISFSGGRTYYADSVKGRFTISRDNAKNTVYLQMNSLKPEDTAVYYCAASAVPRQKGFYYWGQGTQVTVSS”, the “polyreactivity (PSR sort gate)” value is reported as “high polyreactivity”.

Take “QVQLVESGGGLVQAGGSLRLSCAASGSTFDPYAMGWYRQAPGKERELVAAITSGGGTKYADSVKGRFTISRDNAKNTVYLQMNSLKPEDTAVYYCAADYFDSSYQPTDSILYEYWGQGTQVTVSS”: the “polyreactivity (PSR sort gate)” value is “low polyreactivity”.

For “QVQLVESGGGLVQAGGSLRLSCDASGRIFQYNAMGWSRQAPGKLRELVAAITVGGSTNYADSVTGRFTISRDNAKNTVYLQKNSLKPEDTAVSYCNKAWSSSWQVTYGICGQGTQVTVSS”, the “polyreactivity (PSR sort gate)” value is given as “high polyreactivity”.

As for “QVQLVESGGGLVQAGGSLRLSCAASGSIFYYYVMGWYRQAPGKEREFGAAISWGGDSTYYADSVKGRFTISRDNAMYTVYLQMNSLKPEDTAVYYCNADYPWSVVCYAYWGQGTQVTVSS”, the “polyreactivity (PSR sort gate)” value is given as “low polyreactivity”.

Consider “QVQLVESGGGLVQAGGSLRLSCAASGRTFRNYAMGWYRQAPGKERELVAGITYSGGSTFYADSVKGRFTISRDNAKNTVYLQMNSLKPEDTAVYYCAAVYVQYYWLGRSRGLDYWGQGTQVTVSS”, for which the “polyreactivity (PSR sort gate)” value is on record as “high polyreactivity”.

On to “QVQRVESGGGLVQAGGSLRLSCAASGFTFTDYAMGWYRQAPGKERELVAAITIGGGRTYYADSVKGRFTISRDNAKNTVYLQMNSLKPEDTAVYYCNARYQVPYGYWGQGTQVTVSS”, for which the “polyreactivity (PSR sort gate)” value is “low polyreactivity”.

As to “QVQLVESGGGLVQAVGSLRLSSAASRSTFGLNAMGWYRQAPGKESELVAAITFSGGSTYYADSVKGRFTISRDNANNTVYLQKNSLKPEDTAVYYCAARFSLEGGYYWGQGTQVTVSS”, the “polyreactivity (PSR sort gate)” value was “low polyreactivity”.

For “QVQLVESGGGLVQAGGSLRLSCAASGSIFYHNAMGRYRQAPGKERELVAAITGSGGSTYYADAVKGRFTISRDKAKNTVYFQMNSLKPEDTAVYDCAADGYTKWWISWGYDYWGQGTQVTVSS”, the “polyreactivity (PSR sort gate)” value is recorded as “low polyreactivity”.

Turning to “QVQLVESGGGLVQAGGSLRLSCAASGSILSWYAMGWYRQAPGKERELVAAITGSGGTTYADSVKWRFTISRDNAKNTVYLQMNSLKPEDTAVYYCAADYLGIYDYWGQGTQVTVSS”, the “polyreactivity (PSR sort gate)” value is listed as “high polyreactivity”.

“QVQLVESGGGLVQAGGSLRLSCAASGFIFPTYAMGWYRQAPGKERELVAAITWSGSDTYYADSVKGRFTISRDNAKNTVYLQMNRLKPEDTAVYYCAAEVSKYGWRYYYWGQGTQVTVSS”: the “polyreactivity (PSR sort gate)” value is reported as “low polyreactivity”.

Consider “QVQLVESGGGLVQAGGSLRLSCAASGFIFVRNAMGWYRQAPGKERELVAAITGRGGRTYYADSVKGRFTISRDNAKNTVYLQMNSLKPEVTAVYYCAIDSPDDHFGYWGQGTQVTVSS”, for which the “polyreactivity (PSR sort gate)” value is “high polyreactivity”.

With “QVQLVESGGGLVQAGGSLRLSCAASGSIFTRYAMAGYRQAPGKERELVAAISWIGTRTYYADSVKGRFTISRDNAKNTVYLPMNSLKPEETAVYYCNAVSKVERYSYPHGRPFEYWGQGTQVTVSS”, the “polyreactivity (PSR sort gate)” value is reported as “high polyreactivity”.

On to “QVQLVESGGGLVQAGGSLRLSCAASGGIFPYYVMGWYRQAPGNEMELVAAINSGGTTYYADSVKGRFTISRDNAKNTVYLQMNILKPEDTAVYYCAAYYAGFGYNYWGQGTQVTVSS”, for which the “polyreactivity (PSR sort gate)” value is reported as “low polyreactivity”.

“QVQLVESGGGLVQAGGSLRLSCAASGITFDGYAMGWYRQAPGKERELVAAIRSSGGSTYYADSVKGRFTISRDNAKNTVYLQMNSLKPEDTAVYYCATDKVTVWGWKYDSWGQGTQVTVSS”: the “polyreactivity (PSR sort gate)” value is on record as “low polyreactivity”.

Take “QVQLVESGGGLVQAGGSLRLSCAPSVSINNHYAMGWYRQAPGKERELVAAISRSGGLTYYADSVKGRFTISRDNAKNTVYLQMNCLIAEDTAVYYCDAGTSWPWYQRDYWGQGTQVTVSS”: the “polyreactivity (PSR sort gate)” value was “low polyreactivity”.

Consider “QVQLVESGGGLVQAGGSLRLSCSAYGRTFNSYAMGWYRQAPGKERELVATISSGGSTKYADSVKGRFTISRDNAKNTVYLQMNSLKPEDTAVYYCNKVFPNLYIYVVRGLIEMDYWGQGTQVTVSS”, for which the “polyreactivity (PSR sort gate)” value is on record as “low polyreactivity”.

Regarding “QVQLVESGGGLVQAGGSLRLSCAASGRIFAYNAMGWYRQAPGKERELVAAITWSGDSTYYADSVKGRFTISRDNAKNSVYLQMNSLKPVDTAVYYCATDALFKTSTRWKYDYWGQGTQVTVSS”, the “polyreactivity (PSR sort gate)” value was “low polyreactivity”.

For “QVQLVESGGGLVQAGGSLRLSCAASGRIFRYYAMVWYRQAPRKERELVAGITRGGTTNYADSVKGRFTISRDNAKNTVYLQMNSLKPEDTAVYYCAADTRRGIIGYDYWGQGTQVTVSS”, the “polyreactivity (PSR sort gate)” value is “high polyreactivity”.

“PVQLVESGGGLVQAGGSLRLSCAASGFIYPRYAMGWYRQAPGKEREVVAAISYSGGSTYYADSVKGRFTISRDNAKNTVYLQMNSLKPEDTAVYYCAARLFKDSWMDYWGQGTQVTVSS”: the “polyreactivity (PSR sort gate)” value is “high polyreactivity”.

Regarding “QVQLVESGGGLVQAGGSLRLSCAASGSILGHYAMGWYRQAPGTERELVAAISWSGGSTYYADSVKGRFTISRDNAKNTVYLQMNSLKPEDTAVYYCNAAAILYTSDGSLYWYDYWGQGTQVTVSS”, the “polyreactivity (PSR sort gate)” value is on record as “low polyreactivity”.

Turning to “QVQLVESGGGLVQAGGSLRLSCAASGRTFNTNAMGWYRQAPGKERELVAAISRRSGSTYYADSVKGRFTISRDNAKNTVYLQMNSLKPEDTGVYYCARTAVRKYPYEYWGQGPQVTVSS”, the “polyreactivity (PSR sort gate)” value was “high polyreactivity”.

As for “QVQLVESGGGLVQAGGSLRLSCAASGSTFTVNAMGWYRQAPGKERELVAAINGSGDITYYADSVTGRFTISRDNAKNTVYLQMNSLKPEDTAVYYCAADQGVPSTYDYWGQGTQVTVSS”, the “polyreactivity (PSR sort gate)” value is “low polyreactivity”.

For “QVQLVESGGGLVQAGGSLRLSCAASGSTQYSYAMGWYRQAPGKERELVAAINSGSNTYYADSVKGRFTISRDNAKNTVYLQMNSLKPEDTAVYYCAAKGIIYTGYDGARRAYGYWGQGTQVTVSS”, the “polyreactivity (PSR sort gate)” value is reported as “high polyreactivity”.
